# Test results reported in the nanobody polyreactivity screen of Harvey et al. (2022).
# Assay: yeast display, Sf9 membrane polyspecificity reagent, FACS + sequencing; frameworks hold sequencing errors
# Procedure, shortened: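 Polyreactivity labels are assigned by the sorting gate from which each nanobody was recovered. The gates were low and high (top ~1%), set on anti-HA fluorescence for expression and streptavidin fluorescence for reagent binding. Before sorting, galactose-induced (36–48 hours) yeast display cells were stained for 1 hour at 4 °C with 10% biotinylated, detergent-solubilized Sf9 membrane reagent.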
row,Sequence,polyreactivity (PSR sort gate)
1,QVQLVESGGGLVQAGGSLRLSCAASGRIFRYYAMGWYRQAPGKERELVAAIRWTAGSTYYADSVKGRFTISRDNAKNTVYLQMNSLKPEDTAVYYCATDVWKYGRYEYWGQGTLVTVSS,low polyreactivity
2,QVQLVESGGGLVQAGGSLRLSCAASGRIFRYYAMGWYRQAPGKERELVAAISTSGDTTYYADSVKGRFTISRDNAKNTVYLQMNSLKPEDTAVYYCAKPIAPARNAYPAYDYWGQGTQVTVSS,high polyreactivity
3,QVQLVESGGGLVQAGGSLRLSCAASGRIFRYYAMGWYRQAPGKERELVAAISWSGGSTYYADSVKGRFTISRDNAKNTVYLQMNSLKPEDTAVYYCNAYIYRAVPYDYWGQGTQVTVSS,high polyreactivity
4,QVQLVESGGGLVQAGGSLRLSCAASGRIFRYYAMGWYRQAPGKERELVAAITSDGRTYYADSVKGRFTISRDNAKNTVYLQMNSLKPEDTAVYYCAADHHSYRYGGYYYWGQGTQVTVSS,low polyreactivity
5,QVQLVESGGGLVQAGGSLRLSCAASGRIFRYYAMGWYRQAPGKERELVAAITSGGNTYYADSVKGRFTISRDNAKNTVYLQMNSLKPVDTAVYYCADGRNLYHFYYWGQGTQVTVSS,high polyreactivity
6,QVQLVESGGGLVQAGGSLRLSCAASGRIFRYYAMGWYRQAPGKERELVAGITGSGTTNYADSVKGRFTISRDNAKNTVYLQMNSLKPEDTAVYYCNADRYTFWYRYERGYWGQGTQVTVSS,high polyreactivity
7,QVQLVESGGGLVQAGGSLRLSCAASGRIFRYYAMGWYRQAPGKERELVARISWSGGDTYYADSVKGRFTISRDNAKNTVYLQMNSLKPEDTAVYYCNAEAWYSVEYDYWGQGTQVTVSS,low polyreactivity
8,QVQLVESGGGLVQAGGSLRLSCAASGRIFRYYAMGWYRQAPGKERELVASINSGGSTYYADSVKGRFTISRDNAKNTVYLQLNSLKPEDTAVYYCAKRVGHSRHADNDYWGQGTQVTVSS,low polyreactivity
9,QVQLVESGGGLVQAGGSLRLSCAASGRIFRYYAMGWYRQAPGKERELVATISRSGGSTFYADSVKGRFTISRDNAKNTVYLQMKSLKPEDTAVYYCAADYYSYVVGRIYYWGQGTQVTVSS,high polyreactivity
10,QVQLVESGGGLVQAGGSLRLSCAASGRIFRYYAMGWYRQAPGKERELVAVISSRGGSTFYADSVKGRFTISRDNAKNTVYLQMNSLKPEDTAVYYCASRSLYVGYDYWGQGTQVTVSS,high polyreactivity
11,QVQLVESGGGLVQAGGSLRLSCAASGRIFRYYAMGWYRQATGKERELVATITASSGSTYYADSVKGRFTISRDNAKNTVYLQMNSLKPEDSAVYYCAAGFVYRPGSFIRFDYWGQGTQVTVSS,high polyreactivity
12,QVQLVESGGGLVQAGGSLRLSCAASGRIFRYYDMGWYRQAPGKEREFVAAITRSGAITYYADSVKGRFTISRDNAKNTVYLQMNSLKPEDTAVYYCAARYWAKFGYWGQGTQVTVSS,low polyreactivity
13,QVQLVESGGGLVQAGGSLRLSCAASGRIFRYYMGWYRQAPGKERELVAVISSGGRTKYADSVKGRFTISRDNAKNTVYLQMNSLKPEDTAVYYCAARYPREAAYGFDYWGQGTQVTVSS,high polyreactivity
14,QVQLVESGGGLVQAGGSLRLSCAASGRIFRYYTMGWYRQAHGKEREFVATITSSGGSTNYADSVKGRFTISRDNAKNSVYIQTNSLKPEDTAVYYCAKTSRAPWDGYYWGEGTQVTVSS,low polyreactivity
15,QVQLVESGGGLVQAGGSLRLSCAASGRIFRYYTMGWYRQAPGKERELVAAINSSCGSTYYADSVKGRFTISRDNAKNTVYLQMNSLIAEDTAVYYCNAVGYTGRYQFWRVWDVHGDYWGQGNQVTVSS,high polyreactivity
16,QVQLVESGGGLVQAGGSLRLSCAASGRIFRYYTMGWYRQAPGKERELVAAISWTGGRTYYADSVKGRFTISRDNAKNTVYLQMNSLKPEDTAVYYCAATNRYYIFDYWGQGTQVTVSS,high polyreactivity

row,Sequence,polyreactivity (PSR sort gate)
1,QVQLVESGGGLVQAGGSLRLSCAASGRIFSANAMGWYRQAPGKERELVAISWTGGSTYYADSVKGRFTISRDNAKNTVYLQMNSLKPEDTAVYYCAKERYGKYFGSVDYWGQGTQVTVSS,low polyreactivity
2,QVQLVESGGGLVQAGGSLRLSCAASGRIFSAYAMGWYRPAPGKERELVAAISWSGGSTYYADSVKGRFTISRDNAKNTVYLQMNSLKPEDTAVYYCAADYFYTSWYQHDYWGQGTQVTVSS,low polyreactivity
3,QVQLVESGGGLVQAGGSLRLSCAASGRIFSDYAMGWYRQAPGKERELVAVISWDGTNTYYADSVKGRFTISRDNAKNTVYLQMNSLKPEDTAVYYCAATGTSYYSAYDYWGQGTQVTVSS,low polyreactivity
4,QVQLVESGGGLVQAGGSLRLSCAASGRIFSDYVMGWYRQAPGKERELVADITGGGSTYYADSVKGRFTISRDNAKNTVYLQMNSLKPEDTAVYYCAARVYSYWDRSQRYYYCGQGTQVTVSS,high polyreactivity
5,QVQLVESGGGLVQAGGSLRLSCAASGRIFSENAMGWYRQAPGKERELVAAISVSGGSTYYADSVKGRFTISRDNAKNTVYLQMNSLKPEDTAVYYCAAEYLAYYSGYDYWGQGTQVTVSS,high polyreactivity
6,QVQLVESGGGLVQAGGSLRLSCAASGRIFSFNARGWYRPAPGKETELVAGITYGGNTYYADSVKGRFTISRDNAKNTVYLQMNSLKPEDTAVYYCAADGVYDQNLYGFWGQGTQVTVSS,low polyreactivity
7,QVQLVESGGGLVQAGGSLRLSCAASGRIFSFNGMGWYRPAPGKERELVAAITSSGGRTYYADSVKGRFTISRDNAKNTVYLQMNSLIPEDTAVYYCAAELAWDYYWGQGTQVTVSS,low polyreactivity
8,QVQLVESGGGLVQAGGSLRLSCAASGRIFSFYAMGWYRQAPGKERELVATISDGGATTYYADSVKGRFTISRDNAKNTVYLQMNSLKPEDTAVYYCNARRESYYQRYRVDYWGQGTQVTVSS,low polyreactivity
9,QVQLVESGGGLVQAGGSLRLSCAASGRIFSFYAMGWYRQAPGKERELVATISKRAGSTYYADSVKGRFTISRDNAKNTVYLQMNSLKPEDTAVYYCAARKWYYASSRWRDYWGQGTQVTVSS,high polyreactivity
10,QVQLVESGGGLVQAGGSLRLSCAASGRIFSGYAMGWYRQAPGKERELVAAITSRSGSTYYADSVKGRFTISRDNAKNTVYLQMNSLKPEDTAVYYCAAEYVRFYWYTSDYWGQGTQVTVSS,low polyreactivity
11,QVQLVESGGGLVQAGGSLRLSCAASGRIFSGYAMGWYRQAPGKERELVAAIYGGGSTNYADSVKGRFTISRDNAKNTVYLQMNSLKPEDTAVYYCATQYWHYPYWLYKYDYWGQGTQVTVSS,low polyreactivity
12,QVQLVESGGGLVQAGGSLRLSCAASGRIFSGYTMGWYRQAPGKERELVAAIRVGGGRTYYADSVKGRFTISRDNSKNTVYLQMYSLKPEDTAVYYCAKLYIRHGYDYWGQGTQVTVSS,low polyreactivity
13,QVQLVESGGGLVQAGGSLRLSCAASGRIFSGYTMGWYRQAPGKERELVAAITRSGGSTYYADSVKGRFTISRDNAKNTVYLQMNSLKPEDTAVYYCNKVSYRRMDSWGQGTQVTVSS,high polyreactivity
14,QVQLVESGGGLVQAGGSLRLSCAASGRIFSHYDLGWYRQAPGKEREVVAAISSGGITYYADSVKGRFTISRDNAKNTVYLQRNSLKPEDTAVYYCAAVRRRGTTYDYWGQGTQVTVSS,high polyreactivity
15,QVQLVESGGGLVQAGGSLRLSCAASGRIFSINAMGWYRQAPGKEREFVATISDRGSTTSYADSVKGRFTISGDNAKNTVDLQMNSLKPDDTAVYYCAARSYYRYDYWGQGTQVTVSS,high polyreactivity
16,QVQLVESGGGLVQAGGSLRLSCAASGRIFSINAMGWYRQAPGKERELVAAITSRGTSTYYADSVKGRFTISRDNAKNTVYLQMNSMKPEDTAVYYCAKKYVGGPWPRYFWGQGTQVTVSS,high polyreactivity
